For seven molecules, EC50 results are on record in patent US20020099180A1 (published 2002).

The target of test [1] is T1, fibroblast activating protein alpha (FAPα), cell surface-bound on FAP+ cells (FAP over-expressing HT1080 … (human, UniProt Q12884 1-760)).
T1 construct: whole, on cells; Target of the flow cytometry and of the immunohistology; also called cell membrane expressed FAP
T1 sequence (looked up): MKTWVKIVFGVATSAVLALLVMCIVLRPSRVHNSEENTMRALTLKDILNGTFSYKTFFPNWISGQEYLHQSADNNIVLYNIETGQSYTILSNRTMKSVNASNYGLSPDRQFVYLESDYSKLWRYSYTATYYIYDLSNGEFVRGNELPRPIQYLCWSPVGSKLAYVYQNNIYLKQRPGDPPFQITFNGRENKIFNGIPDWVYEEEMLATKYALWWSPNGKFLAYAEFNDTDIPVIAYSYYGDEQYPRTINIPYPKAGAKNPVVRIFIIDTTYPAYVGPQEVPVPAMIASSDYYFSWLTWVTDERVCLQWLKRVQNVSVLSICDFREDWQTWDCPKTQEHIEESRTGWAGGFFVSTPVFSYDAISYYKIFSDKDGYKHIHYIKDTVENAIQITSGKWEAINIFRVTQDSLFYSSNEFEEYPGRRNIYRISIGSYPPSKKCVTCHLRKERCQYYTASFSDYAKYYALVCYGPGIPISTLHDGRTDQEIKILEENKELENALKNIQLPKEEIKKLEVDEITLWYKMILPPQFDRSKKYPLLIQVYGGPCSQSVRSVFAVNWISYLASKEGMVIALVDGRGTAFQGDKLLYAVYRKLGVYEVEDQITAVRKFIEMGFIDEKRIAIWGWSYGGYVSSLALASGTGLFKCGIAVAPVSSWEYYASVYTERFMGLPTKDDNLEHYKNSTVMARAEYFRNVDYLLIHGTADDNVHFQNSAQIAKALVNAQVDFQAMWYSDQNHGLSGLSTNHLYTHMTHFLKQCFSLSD
Nature of the test: binding to FAP+ cells, cell analyser, half maximal saturation.

The target in test [2] is T1, fibroblast activating protein alpha …. Nature of the test: flow cytometry saturation on FAP expressing HT1080 cells; SC50.
The target is the same in test [3]. The test is described as follows: flow cytometry saturation on FAP-overexpressing cells; half maximal saturation.
In test [4] the target is T2, fibroblast activating protein alpha (FAPα), purified and immobilised (ELISA wells) (human, UniProt Q12884 27-760, limits assumed).
T2 construct: also called purified FAP; immobilized FAP
T2 sequence (looked up): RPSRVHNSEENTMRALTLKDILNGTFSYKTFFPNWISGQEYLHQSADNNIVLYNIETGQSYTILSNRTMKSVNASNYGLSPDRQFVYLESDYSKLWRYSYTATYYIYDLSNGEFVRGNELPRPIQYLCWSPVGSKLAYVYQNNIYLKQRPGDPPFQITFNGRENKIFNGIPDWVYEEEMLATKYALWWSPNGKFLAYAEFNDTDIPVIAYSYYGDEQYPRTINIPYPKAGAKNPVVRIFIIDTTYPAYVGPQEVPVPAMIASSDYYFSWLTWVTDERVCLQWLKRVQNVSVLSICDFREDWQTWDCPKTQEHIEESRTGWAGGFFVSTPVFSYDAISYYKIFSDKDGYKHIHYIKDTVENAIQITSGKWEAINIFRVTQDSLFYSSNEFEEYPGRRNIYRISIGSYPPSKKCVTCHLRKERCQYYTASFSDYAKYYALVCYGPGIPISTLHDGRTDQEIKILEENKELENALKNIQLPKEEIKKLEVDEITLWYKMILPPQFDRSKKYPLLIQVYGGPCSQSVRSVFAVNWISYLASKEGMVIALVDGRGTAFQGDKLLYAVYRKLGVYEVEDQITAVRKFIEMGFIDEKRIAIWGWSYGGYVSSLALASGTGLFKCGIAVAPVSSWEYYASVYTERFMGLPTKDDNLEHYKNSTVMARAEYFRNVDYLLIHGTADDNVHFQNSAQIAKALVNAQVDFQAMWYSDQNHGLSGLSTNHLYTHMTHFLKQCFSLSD
The test is described as follows: sandwich ELISA, c-myc tag detection; SC50 = concentration of half maximal saturation of binding.

B1: scFv #50 in minibody format (bivalent) (other)
chain: QVQLVESGGGLVQPGGSLRLSCAASGFTFSNYWMSWVRQAPGKGLEWVANIKQDGSEKYYVDSVKGRFTISRDNAKNSLYLQMNSLRAEDTAVYYCARGSLCTDGSCPTIGPGPNWGQGTLVTVSSAPTKAPKLEEGEFSEARVDIQMTQSPSSLSASTGDRVTITCRASQDISSYLAWYQQAPGKAPHLLMSGATTLQTGVPSRFSGSGSGTDFTLTITSLQSEDFATYYCQQYYIYPPTFGQGTRVEIKRTVAAPSVFAA
notes: Minibody: bivalent homodimeric scFv derivative; also called scFv #50 (as bivalent in minibody format); not shown: hinge-linker-CH3-cmyc-HIS6 of the minibody
B1: it took 32 nM to reach a half-maximal effect in test [1] (EC50).

B2: scFv #34 (VH #34, IgG; VL III43; murine HCDR3 F19) (scFv)
scFv: QVQLQQSGAEVKKPGSSVKVSCKASGGTFSTHTINWVRQAPGQGLEWMGGIAPMFGTANYAQKFQGRVTITADKSTSTAYMEMSSLRSDDTAVYYCARRRIAYGYDEGHAMDYWGQGTLVTVSSASTKGPKLEEGEFSEARVDIQMTQSPSSLSASTGDRVTITCRASQDISSYLAWYQQAPGKAPHLLMSGATTLQTGVPSRFSGSGSGTDFTLTISSLQAEDVAVYYCQQYYRTPFTFGQGTKLEIKRTVAAPSVFAA
notes: Humanised monovalent scFv, detected through the c-myc tag with 9E10; also called clone #34; VH34YOL III43; not shown: c-myc and HIS6 tags (pOPE101), or pIII in the screening ELISA
As for B2, the values for the EC50 in test [1] and in test [2] were approximately 6 nM and 6 nM, respectively.

B3: Mb #34 (minibody of scFv #34) (other)
chain: B2 scFv
notes: also called scFv #34-minibody; not shown: hinge-linker-CH3-cmyc-HIS6 of the minibody
Take B3: in test [3], a half-maximal response (EC50) required 2 nM.

B4: scFv #13 in minibody format (bivalent) (other)
chain: QVQLVESGGTLVQPGGSLRLSCAASGFTFSSYAMSWIRQAPGKGLEWVSGISASGGYIDYADSVKGRVTISRDNSKNMAYLQMSSLRAEDTALYYCAKGGNYQMLLDHWGQGTLVTVSSASTKGPKLEEGEFSEARVDIQMTQSPSSLSASTGDRVTITCRASQDISSYLAWYQQAPGKAPHLLMSGATTLQTGVPSRFSGSGSGTDFTLTITSLQSEDFATYYCQQYYIYPPTFGQGTRVEIKRTVAAPSVFAA
notes: also called scFv #13 (as bivalent in minibody format); scFv #13 (minibody format); not shown: hinge-linker-CH3-cmyc-HIS6 of the minibody
Consider B4, for which, in test [1], the EC50 (in general, the concentration needed to bring the measured effect to its halfway point) lay in the range of 8 to 12 nM.

B5: scFv #18 (VH #18, IgG; VL III43; murine HCDR3 F19) (scFv)
scFv: QVQLVQSGAELKKPGSSMKVSCKASGDTFSTYSINWVRQAPGQGLEWMGVINPSGGSTSYAQKFQGRVTMTRDTSTSTVYMELSSLRSEDTAVYYCARRRIAYGYDEGHAMDYWGQGTLVTVSSASTKGPKLEEGEFSEARVDIQMTQSPSSLSASTGDRVTITCRASQDISSYLAWYQQAPGKAPHLLMSGATTLQTGVPSRFSGSGSGTDFTLTISSLQAEDVAVYYCQQYYRTPFTFGQGTKLEIKRTVAAPSVFAA
notes: Humanised monovalent scFv, detected through the c-myc tag with 9E10; also called clone #18; VH18 YOL III43; not shown: c-myc and HIS6 tags (pOPE101), or pIII in the screening ELISA
With B5, the EC50 is approximately 6 nM in test [1] and 6 nM in test [2].

B6: scFv F19 (parental murine scFv of the monoclonal antibody F19) (scFv, V domains shown)
VH: EVQLQQSGPELVKPGASVKMSCKTSRYTFTEYTIHWVRQSHGKSLEWIGGINPNNGIPNYNQKFKGRATLTVGKSSSTAYMELRSLTSEDSAVYFCARRRIAYGYDEGHAMDYWGQGTSVTVSS
VL: DIVMSQSPSSLAVSVGEKVTMSCKSSQSLLYSRNQKNYLAWFQQKPGQSPKLLIFWASTRESGVPDRFTGSGFGTDFNLTISSVQAEDLAVYDCQQYFSYPLTFGAGTKLELK
As to B6, the EC50 in test [2] and in test [4] was 20 nM each time.

B7: chimeric scFv III43 (murine VH F19 / human VL III43) (scFv, V domains shown)
VH: B6 VH
VL: DIQMTQSPSSLSASTGDRVTITCRASQDISSYLAWYQQAPGKAPHLLMSGATTLQTGVPSRFSGSGSGTDFTLTISSLQAEDVAVYYCQQYYRTPFTFGQGTKLEIKR
B7 showed an EC50 in test [4] of 20 nM.
